Assay results from the DeepSol protein solubility set.

Experiment: soluble on expression in E. coli; label from the status in PepcDB or PDB records

Sequence | soluble on expression in E. coli
MTEFSASLAPQVEAFLRYLSIERQLSPLTVTSYRRQLSALMEIGEQMGLAHWQTLDAAQVRSLVSRSKRAGLHASSLALRLSALRSFLNWLVSQGVLPANPAKGVSTPRSGRHLPKNIDVDEVNKLLSIDLNDPLAVRDRAMLEVMYGAGLRLSELVGMNCKHVDLASGDVWVMGKGSKERKVPLGKTAVTWLQHWLALRELFEPQDDAIFLANTGKRISARNVQKRFAEWGVKQGVSSHIHPHKLRHSFATHMLESSGDLRAVQELLGHANLTTTQIYTHLDFQHLATVYDAAHPRAKRGKS | not soluble
MTLIRWNPWQDLNTLQRQLNHLFEEDMLPSTLLERTLTRVPAAELHETAEVIYLKLELPGIDAKDVDLQVTDKAVYISGERKSETKTEDKGVFKSEFQYGKFQRVIPLPARIQNTNVTAEYKDGILNLTLPKAEVEKNKVVKINIESAAGLEHHHHHH | soluble
MGSDKIHHHHHHAGCEEEASLSARSVVEAGETEREKTELDKWILDTFTRPYGIEVEYRWDKNAVQNGSYIYPPEVANVKSVLNTIKTLWIDLYTAPELGGDKFLLGKNPLKIYMYGGRNVDGNGMELLDNLEATTNEMFLYNVNDFNPQDEDKVFILMRSVHHQFARHLMELFPYDRSKFLSISRNKYIESTKSIAWIFKGETQGRRGFILAGYPNKKGFFTFHSLLSPEKDFAEIISLKLTYGPKDLLQALDRAKTPYNAGSDKDLQKEYDEQALQAYKELVEKQAFVEDYFSKEIKISLNYLQLISMKQVKEFINKK | not soluble
MARPIGIYEKATPKQFTWRERLQFAKDLGFDFVEMSVDESDARLARLEWTKEERLDLVKAIYETGIRIPTICFSGHRRYPLGSNDPAIEAKSLKLMKQCIELAQDLGVRTIQLAGYDVYYEKKSPETRARFIKNLRQSCDWAEEAQVMLSIEIMDDPFINSIEKYLAVEKEIDSPYLFVYPDAGNVSAWHNDLWSEFYNGHKSIAALHLKDTYAVTETSKGQFRDVPFGQGCVDWQELFAVLKKTNYNGPFLIEMWSENCDTVEETKAAIKEAQDFLYPLIEKAGLT | not soluble
MFRTQSRYLVRSILANHCVLPSTRMAVSPILNQSIKFYSSKDNATDKSQEKEQPKSILNDDMLARAGFEDVDPKEETSNSEEQATKQTGRKRKRAQTSKDLQRERYANMFYLSALIFGVAGVGYMSRDWDSEKEQEEMDGKNVENGYTPKLMYERLSKRLGSLFTFFSEPAFENLLPPPPPEQYRRPLTLVVTLDDFLIHSNWDTQHGWRTGKRPGLDYFLGYLSQYYEIVVFSSNSQIYSDKTVNKLDPYHAYISYALFREACRYKDGKLIKDLSLLNRDLGKTVMIDVDEDSAALQPENSIIVKKWEGQPDEYLISLIPFLEYLATQPVKDVRPILNSYKDKSNIVAEFAERENKLREQWRKDHGGNNGKPNAGNFIAKLLGIPVPEPKMPLDIIREHGQLQYEHFQKYLQENAHKFLEEEQKLKDEFGKVTLNKLITEGAPNAEEIAKVQQQRALEEAQKQQEGHK | not soluble
AHHHHHHGSYLEEKDGIKFYSLNKLEKEGFDVHSLPYSLRILAENILRHLNNGVVSYEHIENIFERKGDIPFYPARIIMQDYTGVPAIVDLAAMRDYIKEKGKDPSRVNPKIPVELVVDHSLIVLYHGTKYSLYENMKEELKANRERYSLLKWASKAFENLKIIPPGKGIIHQINVEHLARIVFLEEGIAYPDTVLGTDSHTPMVNGIGVLGWGVGGIEAEAALLGLPYFMKVPEVVGVVLEGEPSPEITPTDIVLTITEKLRKVGVVGKFLEYTGNVEALSAFDRTVIANMTPENGATVGYFPIDEETIKFIRLTRGESKAKLVEKYAKLNMLYREETPEFDKTVKIDLSKVEPSVAGPFHPEDRIRLKDLKNSFKVEKKTKIRINGGEVEIEDGIIGLAAIASCTNTSNPYNILAAALVAKKAVELGLRTKPWVKTTFTPGSRVVVKYLEKLGLLSYLEALGFHVNGYACASCIGNSGPLKREVEEVIDKGIKVAAVISGNRNFRRRVNSKIDYTYLASPPLVVVFAIAGKITIDPSEPLAYDPNGKPVYLTDILPTKEEVKKLEEVIGEELYKEAYSSLFEDSIWKDIETEESPLFKWDEKSTYVRKPPFFDLTPITDDIKGARALIVLGDRISTDDISPAGKIDPESPAGRYLLSLGVKPEELHTYGARRGNHEVMMRGTFARFKMIYWPTGEEMSVYEAAMRYKERGIPLIIIAGKQYGVGSSRDWAAKGPALLGVKAVIAESFERIHRSNLVGMGIVPLQFKDPEVRKRLTGEEVYDIIGLKDLYPGKTIKVIARKPNGEVIEFETIARVETPIEVEYIRHGGILKYALELLG | not soluble
MKKVIAGLAAASVAGVAVPGMDSAHAQVSNEALKEINGQTQTQTQTQTTVTETKTVETTSELKYTVTADVLNVRSGAGTGHNVISKVKSGQVLQVVGQENGWFKVNVNGQTGYVSGDFVTTGGKTGTTVQQGTGTYTVNVSSLNVRTGPSTSHTVLGSVNKGKTVQVVGEVQDWFKINFNGGTGYVSKDFVTKGGSAVSNETQQPTTNNNTTTVQTGGSYVVNTGALKVRTGPATYNAVIGGVTNGKVLNVTGAENGWYKINHNGRTGYVSADFVKFVKGGVNNVTNNNNVTNNVQQPGKDVQKPTTGGDTSSIAGFARSLNGSPYRTAGTTPAGFDCSGFIHYVLNQTGHKGARQTVAGYWSSKTKTSNPQPGDLVYFQNTYKSGPSHMGVYLGNGQFISAETDATGVRISSVSNSYWSKHLLGYTKAYLEHHHHHH | soluble
MEEKVEFILEVRSIPVYGDEFSPRLRKFFPIDYEPVERVTVPTSKKADYAVMISSNLKPFSIKEGDYILISLDDEPQEGDLVAVLVKDFRITVGRVKERQEDIFVVEVGNEVGIYRCFIFPYLDQLHRSSFELSFNPYVLGKITAILRKKPAH | soluble
MEKLTKRQQDILDFIKLKVQEKGYPPSVREIGQAVGLASSSTVHGHLSRLEEKGYIRRDPTKPRAIEILGEDRMDTETQSVIQVPIVGKVTAGLPITAVESVEEHFPLPASIVAGADQVFMLRISGDSMIEAGIFDGDLVVVRQQQSAYNGEIVVALTEDNEATVKRFYKEKDHFRLQPENSSLEPIILKQVSVIGKVIGVYRDLH | not soluble
MKLIVAVVQDQDSNRLLKTLTDHNFRVTKLATTGGFLKSGNTTFMIGVEDIRVNKALSLIKENGQKRDQMIAPVSPMGGNADSYVPYPVEVEVGGATVFVLPVDEFHQFLEHHHHHH | soluble
MWKRLCAGLSCRKFINQVTMTSVNKNRKSRDENEMAKYNEKELADTSKFLSFVLRHKPEAIGIVLDREGWADIDKLILCAQKAGKRLTRALLDTVVATSDKKRFSYSSDGRCIRAVQGHSTSQVAISFAEKTPPQFLYHGTASRFLDEIKKQGLIAGERHYVHLSADEATARKVGARHGSPVILTVKAQEMAKRGLPFWQAENGVWLTSTVAVEFLEW | soluble
MGSDKIHHHHHHMSRLIEQIKQKDACAFTHGGKFHADDVFSSALLLYINPEISITRGNSVPDDFTGIVFDIGRGEFDHHQKDSRIRENGVPYAAFGLLWEAVGADILGKELAVKFDESFVQPLDNNDNTGEKNELATLIGNFNPSWDYEGGSDEAFFQAVSVAGMILENKFERYRGNERADKRVEEVLAKHDPASRILVLPEFIPCQKALSETDIAFVIFPSNRGGFCIQPQKREYSMNYKCSFPAEWLGLEGEELVNATGIPGAIFCHKGGFIMTVKEQDEAVKACEKALSLHKDSSVIVWYGSKGDTAAMACDSQTDELLINVAKARGIKGVHICHVDAMPVPQLELTELDSETAYAEVLMEKPQWKAYVKEQVKQIVKYRPEAVYVEGNAFETYPVIRALRKKHIPVLTMIENKEKKIMVRIP | not soluble
MAIKLIAIDMDGTLLLPDHTISPAVKNAIAAARARGVNVVLTTGRPYAGVHNYLKELHMEQPGDYCITYNGALVQKAADGSTVAQTALSYDDYRFLEKLSREVGSHFHALDRTTLYTANRDISYYTVHESFVATIPLVFCEAEKMDPNTQFLKVMMIDEPAILDQAIARIPQEVKEKYTVLKSAPYFLEILDKRVNKGTGVKSLADVLGIKPEEIMAIGDQENDIAMIEYAGVGVAMDNAIPSVKEVANFVTKSNLEDGVAFAIEKYVLN | not soluble
MSLRVLIVENEIYLAQSIAAKLSDFGFECEIVSLVNEALREQEYDVVLLSTNVSGQNYYPIIEKHKDSIIILMISYVSDDTVSKPLKAGAKDYILKPFMIDELIRKIEHYRTFQKLKKEVQFYRRYLDFALSDFPSSLNQKLTTPFVIKSSTQKSADAYAIAYAKHKDIPLDFLSIKEGFHWRDKLKRALPCREIKYIVGLEELKKSERKELLEIVAKSCVILSFVSSEEGHHHHHH | not soluble
MGSDKIHHHHHHMKIAIVGGPTAVGKTDIMIEVCEEIGAEIISMDSRQIYRYMDIGTAKPTPEQRKRVLHHMIDIIDPDEYYNAFMYRKDSLRAMEDVLRRGKIPVYVGGTGLYADALVRGIFEGVPADENIRKELRELERREPGILRKMLEELDPEAATRIHPNDLKRTIRALEVYMKTGRRISELQKEAKGDDRFFIIVLTRERYELYERINKRVDKMIEMGLVDEVKRLLGMGYSKDLNSMKTIGYKEVIDYLEGKYDFDKMVHLIKRNTRHFARRQIIWFKRYKEAVWYNLTFEDVGEVKEKLKKLIVENFSV | not soluble
MYPLTLLRISRNRIVELELKNNDQLRGLLHKCDMAMNLHLKSVTIQKEDGSSIFINECYLKGTSIRLVKLESKILLEQREECVSNNKA | not soluble
MGHHHHHHSHMITREEIANVLDQPVYDGDGNKIGDAKHVFFDDMTGRPEWVSVKTGMFGSTESFVPIRDAALVQDHLEVPYGKDQVKGAPSVDVDAGGHLSETEEHRLYDYYGINWDSVLSEAERTDDDRFAAGPGTAGAAGTAGAAGLAGTAGAAGAAGTAGGRTGREDAMRREGMRGDEGAMRREGMRGDEAMTRSEEQMHIGVERHESGRARLRKYVVTEEVQQTVPVTHEEVRVVREPITDANRDEALAGPEISEAEHEVTLHAERPVVETETVPVERVRMTTEELTENETVRGQVRKERIEAETESFTEGETKNARDDKRRGGK | soluble
MGSDKIHHHHHHMKIRLTQLQCSSSSVTVDINDWVIEPQQSWGVFSTEGDVGALLGQLLTQQIDAQTLTYSGDIIGVTPASVALVSLLEQQSLLEAILEQDDSESLGYTDPKTTVFGVVFNQCHDNDLTHQLLQQLDLTHLSLSPFAQLSTGEGRRVMLARAVATQVPFLVLDEPYAGLDVAHRQTLTEYLQQLSQTKQILVVVSREEDMPDWIEHVAMFSHGKLDTMMTKSQWDNHPVIAQLTAQAGQQSDDILALIRRHRHKPLFANPVFQLNNGRVAYSDKVIFSGVNWRIDNGVHWQVKGPNGCGKSTLLGLIFGDHPQCYSNDIDIFGNKRGSGESIWEIKKHIGMVSSALHLQYRVNCSALDVIVSGFYDSIGLYQKPTAQQISVATEWLAILHMGHLSKTAFRQLEYGQQRLLLIARAIVKQPTLLILDEPYQGLDYLGRRLIKNALELIAKEHLSQLLYVSHYQEDSLDSIQHYIEFVKDENQDGYRAVVSQG | not soluble
MGHHHHHHSHAFDLTVPTTNQFLLQYLRRQGVCVRTENLAKYVAELSLLEADPFLKYLPSLIAAAAFCLANYTVNKHFWPETLAAFTGYSLSEIVPCLSELHKAYLDIPHRPQQAIREKYKASKYLCVSLMEPPAVLLLQ | not soluble
MSLKNQKPLAELLRPSTLEEYFGQNKLIGEQTLLRSLLKSQEIPSLILWGPPGCGKTTLAHIIASSIKQKGTGRFVTLSATSASVSDVREVIKQAQNELRLCKRKTVLFIDEIHRFNKSQQDTFLPHVECGTITLIGATTENPSFQVNSALLSRCRVLVLERLSVEAVGSILRRAVDFLDLRILDSEERHSSEICSEAQVCVEQKALDTLAHLCDGDARAALNGLQLAVQACVLQSSSNHNRSSTVVREQHIKEALQRSHILYDKAGEEHYNCISALHKSMRGSDANAALYWLARMLEGGEDPLYVARRLVRFASEDIGLADPVALSQAVAAFQACHLIGMPECEVILAQCAVYLARAPKSVEVYKAYNNVKMCLRNHKGPLPSVPLHLRNAPTKLMKNLGYAKGYKYNPNYSGPVKQEYLPEELRGVDFFTWTPSEGHHHHHH | not soluble
